Reference: US20180244778A1 (THERAPIX BIOSCIENCES, published 2018)
Substitutions are numbered along the chain they refer to.

Columns and labels:
[1] = biological target: T1, human cell-surface CD3 (Cluster of Differentiation 3) on Jurkat cells (human, UniProt P07766 23-207); assay: direct binding by FACS, dilution series on 3×10^5 Jurkat cells
T1 construct: whole, on cells; CD3 is a complex of several chains; also called human CD3; CD3 T-cell-surface molecule

[2] = biological target: T1, human cell-surface CD3 (Cluster of …); assay: competition FACS on Jurkat cells; competitor OKT3-PE at 0.02 µg/mL

B1: OKT3-PE labeled conjugate (Abcam Cat. No. ab86882) (antibody, mouse IgG2a, V domains shown)
VH: not shown
VL: QIVLTQSPAIMSASPGEKVTMTCSASSSVSYMNWYQQKSGTSPKRWIYDTSKLASGVPAHFRGSGSGTSYSLTISGMEAEDAATYYCQQWSSNPFTFGSGTKLEINR
modifications: PE (phycoerythrin) conjugate, site not stated
notes: Bought PE conjugate of OKT3; also called labeled OKT3
B1 showed an EC50 [1] of 0.02 mg/L.

B2: VH2ala/Vκ2 humanized anti-CD3 mAb (antibody, V domains shown)
VH: QVQLVQSGSELKKPGASVKVSCKASGYTFTRYTMHWVRQAPGKGLEWIGYINPSRGYTNYNQKFKDRATITTDKSTSTAYMELSSLRSEDTAVYYCARYYDDHYALDYWGQGTLVTVSS
VL: QIVLTQSPATLSLSPGERATLSCSASSSVSYMNWYQQKPGKAPKRWIYDTSKLASGVPSRFSGSGSGTDYTLTISSLQPEDFATYYCQQWSSNPFTFGGGTKVEIKR
In the case of B2, the IC50 [2] is reported as 0.045 mg/L.

B3: VH2ser/Vκ2 humanized anti-CD3 mAb (antibody, V domains shown)
VH: B2 VH with A105S
VL: QIVLTQSPATLSLSPGERATLSCSASSSVSYMNWYQQKPGKAPKRWIYDTSKLASGVPSRFSGSGSGTDYTLTISSLQPEDFATYYCQQWSSNPFTFGGGTKVEIK
notes: Human IgG4 (Ser241Pro) / κ; also called VH2ser/Vκ2 mutant; VH2scr/VK2
Binder B3 has an IC50 [2] of 0.041 mg/L.

B4: VH2val/Vκ2 humanized anti-CD3 mAb (antibody, V domains shown)
VH: B2 VH with A105V
VL: B2 VL
B4 was tested, and the IC50 [2] was 0.055 mg/L.
